From patent publication US20150175711A1 (SINOMAB BIOSCIENCE, published 2015)

Columns and labels:
[1] = molecular target: anti-idiotype IgD-TM on transfected SP2/0 cells; assay: cell-based ELISA, SM03 10 ug/ml on transfected SP2/0 Clone AF9 (surface expression graded -), anti-human Fc-HRP
[2] = molecular target: anti-idiotype mIgG Fab-GPI-DAF fusion protein on transfected SP2/0 cells; assay: cell-based ELISA, SM03 on transfected SP2/0 GPI clone 8 (surface expression graded -), anti-human Fc-HRP
[3] = molecular target: anti-idiotype mIgG Fab-GPI-DAF fusion protein on transfected SP2/0 cells; assay: cell-based ELISA, SM03 on transfected SP2/0 GPI clone 5 (surface expression graded +), anti-human Fc-HRP
[4] = molecular target: anti-idiotype IgD-TM on transfected SP2/0 cells; assay: cell-based ELISA, SM03 10 ug/ml on transfected SP2/0 Clone BB4 (surface expression graded -), anti-human Fc-HRP
[5] = molecular target: anti-idiotype mIgG Fab-glycophorin A fusion protein on transfected SP2/0 cells; assay: cell-based ELISA, SM03 on transfected SP2/0 GlycoA clone 15 (surface expression graded +++), anti-human Fc-HRP
[6] = molecular target: anti-idiotype IgD-TM on transfected SP2/0 cells; assay: cell-based ELISA, SM03 10 ug/ml on transfected SP2/0 Clone BB5 (surface expression graded -), anti-human Fc-HRP
[7] = molecular target: anti-idiotype mIgG Fab-GPI-DAF fusion protein on transfected SP2/0 cells; assay: cell-based ELISA, SM03 on transfected SP2/0 GPI clone 3 (surface expression graded +++), anti-human Fc-HRP
[8] = molecular target: anti-idiotype mIgG Fab-glycophorin A fusion protein on transfected SP2/0 cells; assay: cell-based ELISA, SM03 on transfected SP2/0 GlycoA clone 1 (surface expression graded -), anti-human Fc-HRP
[9] = molecular target: anti-idiotype mIgG Fab-glycophorin A fusion protein on transfected SP2/0 cells; assay: cell-based ELISA, SM03 on transfected SP2/0 GlycoA clone 3 (surface expression graded -), anti-human Fc-HRP
[10] = molecular target: anti-idiotype IgD-TM on transfected SP2/0 cells; assay: cell-based ELISA, SM03 10 ug/ml on transfected SP2/0 Clone AG5 (surface expression graded +++), anti-human Fc-HRP
[11] = molecular target: anti-idiotype mIgG Fab-glycophorin A fusion protein on transfected SP2/0 cells; assay: cell-based ELISA, SM03 on transfected SP2/0 GlycoA clone 10 (surface expression graded -), anti-human Fc-HRP
[12] = molecular target: anti-idiotype IgD-TM on transfected SP2/0 cells; assay: cell-based ELISA, SM03 10 ug/ml on transfected SP2/0 Clone AB4 (surface expression graded -), anti-human Fc-HRP
[13] = molecular target: anti-idiotype mIgG Fab-glycophorin A fusion protein on transfected SP2/0 cells; assay: cell-based ELISA, SM03 on transfected SP2/0 GlycoA clone 14 (surface expression graded -), anti-human Fc-HRP
[14] = molecular target: anti-idiotype IgD-TM on transfected SP2/0 cells; assay: cell-based ELISA, SM03 10 ug/ml on transfected SP2/0 Clone BF9 (surface expression graded -), anti-human Fc-HRP
[15] = molecular target: anti-idiotype mIgG Fab-GPI-DAF fusion protein on transfected SP2/0 cells; assay: cell-based ELISA, SM03 on transfected SP2/0 GPI clone 6 (surface expression graded -), anti-human Fc-HRP
[16] = molecular target: anti-idiotype mIgG Fab-glycophorin A fusion protein on transfected SP2/0 cells; assay: cell-based ELISA, SM03 on transfected SP2/0 GlycoA clone 9 (surface expression graded -), anti-human Fc-HRP
[17] = molecular target: anti-idiotype mIgG Fab-GPI-DAF fusion protein on transfected SP2/0 cells; assay: cell-based ELISA, SM03 on transfected SP2/0 GPI clone 7 (surface expression graded -), anti-human Fc-HRP
[18] = molecular target: anti-idiotype mIgG Fab-GPI-DAF fusion protein on transfected SP2/0 cells; assay: cell-based ELISA, SM03 on transfected SP2/0 GPI clone 10 (surface expression graded -), anti-human Fc-HRP
[19] = molecular target: anti-idiotype mIgG Fab-GPI-DAF fusion protein on transfected SP2/0 cells; assay: cell-based ELISA, SM03 on transfected SP2/0 GPI clone 9 (surface expression graded -), anti-human Fc-HRP
[20] = molecular target: anti-idiotype mIgG Fab-glycophorin A fusion protein on transfected SP2/0 cells; assay: cell-based ELISA, SM03 on transfected SP2/0 GlycoA clone 5 (surface expression graded +++), anti-human Fc-HRP
[21] = molecular target: anti-idiotype mIgG Fab-glycophorin A fusion protein on transfected SP2/0 cells; assay: cell-based ELISA, SM03 on transfected SP2/0 GlycoA clone 8 (surface expression graded -), anti-human Fc-HRP
[22] = molecular target: anti-idiotype mIgG Fab-GPI-DAF fusion protein on transfected SP2/0 cells; assay: cell-based ELISA, SM03 on transfected SP2/0 GPI clone 1 (surface expression graded -), anti-human Fc-HRP
[23] = molecular target: anti-idiotype mIgG Fab-GPI-DAF fusion protein on transfected SP2/0 cells; assay: cell-based ELISA, SM03 on transfected SP2/0 GPI clone 4 (surface expression graded +++), anti-human Fc-HRP
BSA = molecular target: T1, BSA (UniProt P02769 25-607); assay: phage ELISA, 1 ug BSA coated per well, anti-M13-HRP detection
T1 construct: also called control protein (BSA)
Procedure: Phages that survived panning were rescued. The binding specificities of selected phages were evaluated by Phage-ELISA using the target anti-CD22 antibodies RFB4, SM03, and framework-patched (humanized) SM06 and other control antibodies as antigens. […] After washing five times with borate washing buffer, pH8.0, horse radish peroxidase (HRP)-conjugated anti-M13 mouse antibody (Amersham) at a dilution fold of 3,000 was added.

Sequence of anti-idiotype mIgG Fab-glycophorin A fusion protein on transfected SP2/0 cells (heavy, as listed by the source limits assumed, chain 1 of 2): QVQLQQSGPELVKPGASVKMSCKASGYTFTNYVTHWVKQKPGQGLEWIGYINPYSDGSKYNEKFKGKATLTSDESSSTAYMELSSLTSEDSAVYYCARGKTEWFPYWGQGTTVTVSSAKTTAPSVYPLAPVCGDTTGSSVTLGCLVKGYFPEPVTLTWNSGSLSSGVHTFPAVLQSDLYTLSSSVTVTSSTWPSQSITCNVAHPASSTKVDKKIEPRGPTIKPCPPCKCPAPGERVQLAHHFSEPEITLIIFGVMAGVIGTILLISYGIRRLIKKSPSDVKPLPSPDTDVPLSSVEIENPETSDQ
Sequence of anti-idiotype mIgG Fab-glycophorin A fusion protein on transfected SP2/0 cells (light, as listed by the source limits assumed, chain 2 of 2): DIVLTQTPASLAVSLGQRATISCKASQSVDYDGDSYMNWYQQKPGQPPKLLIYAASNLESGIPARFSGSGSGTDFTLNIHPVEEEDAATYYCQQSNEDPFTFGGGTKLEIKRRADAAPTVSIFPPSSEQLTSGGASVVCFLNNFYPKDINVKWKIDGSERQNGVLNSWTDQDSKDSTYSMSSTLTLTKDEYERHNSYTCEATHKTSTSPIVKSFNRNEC
Sequence of anti-idiotype mIgG Fab-GPI-DAF fusion protein on transfected SP2/0 cells (heavy, as listed by the source): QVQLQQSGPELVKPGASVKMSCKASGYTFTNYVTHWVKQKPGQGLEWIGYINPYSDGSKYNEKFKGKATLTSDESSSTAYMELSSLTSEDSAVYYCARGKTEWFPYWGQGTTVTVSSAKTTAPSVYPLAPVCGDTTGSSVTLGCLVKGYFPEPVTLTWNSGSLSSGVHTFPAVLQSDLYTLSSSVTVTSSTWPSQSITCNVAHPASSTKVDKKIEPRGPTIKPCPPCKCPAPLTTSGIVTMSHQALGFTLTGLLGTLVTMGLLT
Sequence of anti-idiotype IgD-TM on transfected SP2/0 cells (heavy, as listed by the source limits assumed, chain 1 of 2): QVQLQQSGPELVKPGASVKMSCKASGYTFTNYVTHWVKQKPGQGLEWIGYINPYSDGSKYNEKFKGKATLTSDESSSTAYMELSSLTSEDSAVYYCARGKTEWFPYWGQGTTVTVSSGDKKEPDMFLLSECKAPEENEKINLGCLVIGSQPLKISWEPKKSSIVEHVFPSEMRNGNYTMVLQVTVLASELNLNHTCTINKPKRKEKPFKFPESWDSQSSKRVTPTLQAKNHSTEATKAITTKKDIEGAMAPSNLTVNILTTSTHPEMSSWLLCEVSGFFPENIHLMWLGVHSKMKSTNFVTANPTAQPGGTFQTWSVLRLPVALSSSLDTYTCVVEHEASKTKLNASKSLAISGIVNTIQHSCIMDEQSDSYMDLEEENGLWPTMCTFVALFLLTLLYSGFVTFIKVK
Sequence of anti-idiotype IgD-TM on transfected SP2/0 cells (light, as listed by the source limits assumed, chain 2 of 2): as the sequence (light, as listed by the source limits assumed, chain 2 of 2) above
T1 sequence (P02769 25-607 limits assumed): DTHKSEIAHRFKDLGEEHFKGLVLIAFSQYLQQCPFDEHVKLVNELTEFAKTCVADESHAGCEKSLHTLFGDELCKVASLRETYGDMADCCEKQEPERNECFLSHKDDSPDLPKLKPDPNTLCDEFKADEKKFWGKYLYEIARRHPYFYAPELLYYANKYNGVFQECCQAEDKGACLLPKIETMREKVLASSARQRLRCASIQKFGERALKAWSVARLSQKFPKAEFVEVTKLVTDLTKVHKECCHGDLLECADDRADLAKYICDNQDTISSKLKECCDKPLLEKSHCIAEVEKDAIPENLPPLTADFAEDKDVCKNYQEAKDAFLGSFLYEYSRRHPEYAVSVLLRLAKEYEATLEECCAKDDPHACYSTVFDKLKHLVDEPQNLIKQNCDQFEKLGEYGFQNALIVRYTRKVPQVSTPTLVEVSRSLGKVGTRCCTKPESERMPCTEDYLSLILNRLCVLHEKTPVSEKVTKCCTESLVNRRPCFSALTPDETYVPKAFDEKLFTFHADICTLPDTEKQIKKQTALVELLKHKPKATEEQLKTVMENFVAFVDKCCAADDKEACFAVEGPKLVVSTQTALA

SM03 chimeric anti-CD22 antibody
OD450 nm [1]: 0.329 OD450 nm | OD450 nm [2]: 0.618 OD450 nm | OD450 nm [3]: 0.977 OD450 nm | OD450 nm [4]: 0.501 OD450 nm | OD450 nm [5]: 3.38 OD450 nm | OD450 nm [6]: 0.572 OD450 nm | OD450 nm [7]: 3.64 OD450 nm | OD450 nm [8]: 0.579 OD450 nm | OD450 nm [9]: 0.406 OD450 nm | OD450 nm [10]: 3.08 OD450 nm | OD450 nm [11]: 0.498 OD450 nm | OD450 nm [12]: 0.428 OD450 nm | OD450 nm [13]: 0.437 OD450 nm | OD450 nm [14]: 0.459 OD450 nm | OD450 nm [15]: 0.736 OD450 nm | OD450 nm [16]: 0.716 OD450 nm | OD450 nm [17]: 0.7 OD450 nm | OD450 nm [18]: 0.85 OD450 nm | OD450 nm [19]: 0.618 OD450 nm | OD450 nm [20]: 3.53 OD450 nm | OD450 nm [21]: 0.284 OD450 nm | OD450 nm [22]: 0.623 OD450 nm | OD450 nm [23]: 3.77 OD450 nm

B1: scFv Phage #3 (scFv)
scFv: QVQLVQSGPELVKPGASVKMSCKASGYTFTNYVTHWVKQKPGQGLEWIGYINPYSDGSKYNEKFKGKATLTSDESSSTAYMEVSSLTSEDSAVYYCARGKTEWFPYWGQGTPLTVSGGGGSGSGSSGGGGDIVLTQTPASLAVSLGQRATISCKASQSVDYDGDSYMNWYQQKPGQPPKLLIYAASNLESGIPARFSGSGSGTDFTLNIHPVEEEDAATYYCQQSNEDPFTFGGGTKLEI
notes: the phage coat protein fusion is not described; also called scFv isolated from phage #3
binding result (BSA): no binding
